Source: article PMC3905015

Target: monomeric red fluorescent protein (mRFP)
Experiment: native MS; ESI-TWIMS-MS (nanoESI, Synapt HDMS), purified protein in 50 mM ammonium acetate; gas phase; self-association

stoichiometry N: 2
Substance: monomeric red fluorescent protein (mRFP)
